Reference: publication PMC5773694
Values belong to the binder of their own block, whether it stands above or below them.

Biological target: T1, Arabidopsis serine/threonine/tyrosine protein kinase (STYK, At2g24360) (Arabidopsis thaliana) (UniProt Q9ZQ31)
T1 sequence: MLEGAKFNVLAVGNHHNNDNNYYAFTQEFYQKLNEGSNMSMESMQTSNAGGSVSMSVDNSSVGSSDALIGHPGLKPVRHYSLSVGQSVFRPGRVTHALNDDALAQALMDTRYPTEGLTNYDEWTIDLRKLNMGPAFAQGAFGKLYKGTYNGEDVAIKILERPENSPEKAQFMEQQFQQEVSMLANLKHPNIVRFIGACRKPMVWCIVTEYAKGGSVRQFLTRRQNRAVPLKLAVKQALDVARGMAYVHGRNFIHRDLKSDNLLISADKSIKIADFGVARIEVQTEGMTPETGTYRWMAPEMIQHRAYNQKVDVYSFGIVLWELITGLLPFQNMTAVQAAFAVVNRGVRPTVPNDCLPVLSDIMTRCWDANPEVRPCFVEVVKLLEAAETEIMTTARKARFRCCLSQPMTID

- Km of STYK for CAL4 as substrate, in vitro kinase assay: 0.997 µM
B1: Arabidopsis caleosin 4 (CAL4, At1g70670), probable peroxygenase 4 (natural protein)
chain: MASSISTGVKFVPEEDNFLQRHVAFFDRNKDGIVYPSETFQGFRAIGCGYLLSAVASVFINIGLSSKTRPGKGFSIWFPIEVKNIHLAKHGSDSGVYDKDGRFVASKFEEIFTKHAHTHRDALTNEELKQLLKANKEPNDRKGWLAGYTEWKVLHYLCKDKNGLLHKDTVRAAYDGSLFEKLEKQRSSKTSKKHP

- Km of STYK for OLE1 as substrate, in vitro kinase assay: 0.966 µM
B2: Arabidopsis oleosin 1 (OLE1, At4g25140), oleosin 18.5 kDa (natural protein)
chain: MADTARGTHHDIIGRDQYPMMGRDRDQYQMSGRGSDYSKSRQIAKAATAVTAGGSLLVLSSLTLVGTVIALTVATPLLVIFSPILVPALITVALLITGFLSSGGFGIAAITVFSWIYKYATGEHPQGSDKLDSARMKLGSKAQDLKDRAQYYGQQHTGGEHDRDRTRGGQHTT
